According to the DeepSol protein solubility set:

Assay: soluble on expression in E. coli; label from the status in PepcDB or PDB records

Sequence	soluble on expression in E. coli
MNQIIENAFVKVEVSPHGAELQSIFNKQFHLEYLWQGDPAVWPRKAPVLFPIVGKVKDNQYTISGKTYSLSQHGFARDNAFTLVSATDTTLVYRLTHSEDSFKNFPYEFELDISYSIEHSILKVAYKIHNSSGTSDLYYSIGAHPGFRCPLVEGETFEDYYLEFEKAEKLNRVLLDGGLRGDQTEPVPLTNNKLPLSVNLFGSKDAIVVSGLHSERISLKSNKSVHGLHFDYKNYPWFGIWSKPGPFVCLEPWMGVADDIHAAGDFIKKESIQFLQPKAEALFTYSIELFLEHHHHHH	not soluble
MAHHHHHHMTQSVSIGADHRLEATTSDCVSSVCFSPKECPMLMTGVASWDGSCSIWQVARNPAGAVISQPAWTTTHDSPLLTMSFSADGRVFFGGCSKTAVMWDLNSNQKAVVASHDLPISCLDFLTLPQTMSQMLITGSWDGKLRWWDLRQQSYVREENLGEPVFALDAQKTVPMMAAATGRLAHVYDVQQMQKVNELKLPDVMKFNLRCITCAPQYDGVGVGSSEGRVSFISMKDAPGCTFKAHITTEKSHYILSQTNFCVHHPTLPLLLSGGGDGNLTVINRADRKVIKTLQCEQKVGTQAIPISAGDISADGSLVAYAHSYDWAMGKSGYRNQPTSVHIRPLS	not soluble
MLMVVPLSEMGPGDKGIVVNILGGHNARQKLVSMGLTPGATIQVLESHPMGPIIISVGGVRFAIGKGLAGRVMVRKL	soluble
VLHAIEPLNLGPKPIFVHEQGLLVEWIDGITLTKDGIELEELLPIAATIHQYHSSSIPVVPFSYISRIDHYWLELEGKYVGSEFETLYKQWRSEPSVEQIPLALCHFDLGCYNLVRGDQGVKVIDWEYASLADPRLDL	not soluble
MGSDKIHHHHHHMDNAIVTSPSGSSPAEAQAFLDAHPEIEAFDIVLTDANGVGRGKIVRRHELKSIFEGGRHMPISILGLDITGEDVHETGLIWTTGDGDLRAWPIPGTLVPLYGTNPPRGQVLMAMYHLDGQPMSSDPRLALARQVDILAAKGLYPAGAFELEFFLLANERDADGKVQPARAVLDGRVSGKTEVYSVDHLHGMEPLFSDIYAAAKAQGIPAETVISEYAPGQYELTLNYRKDVMRAADDLVMLKRLVRAQARRHGVTACFMAKPIEKYAGSGMHFHVSLQDKAGRNVFAEAGGESWSLPLLQGLGGLIQTMAESMLVFAPHANSWRRFVSQSYAPVAPTWGVNNRSVALRVPAGDAKNRRIEHRPSGVDANPYLIAATVLAGIVKGLDEGLDPGPETTGNGYEAAVTRTTMPADWRAAIEAAKASSFLKGALGEDLHRTFVAIKQSEYLRVARTVSELDYHLYLHEV	not soluble
MKISTQSEVEGVLIKALSEGKGIQHVELALKDLPAFDRKRARTTAITEVLTAASVAQQEAFEQSPSVEGKKWKHSGGKGIEPRSSHIELSGKVVQINETFTIPGSGELAKYPRDTDLSASERIHCHCALGPAVNEEIL	not soluble
SVHPALEFSDCYSDSPDFRERLKCYENELEKTNKFLKDVIKDGNNVINTFKEYSLAVQKFSQTLQSFQFDFIGDTLTDDEMNIAESFREFAGLLQDVEEARMMLVQNASDLLIKPLEKFRKEQIGVTKERRKKFEKESEKYYSQLDKHVNLSSKKKETQLQEADEQLDKERQAFYESSVEYVYQIQQVQEKKKFDVVEPVLAFLQSILTLNNLTVEMYTFRNKGTKCNTGEIPFQKVQFCTIQVDISTFMVHFCTFKLYFCTFKIP	soluble
MRGSHHHHHHTDPALRALGLKQVHHIAIIATDYAVSKAFYCDILGFTLQSEVYREARDSWKGDLALNGQYVIELFSFPFPPERPSRPEACGLRHLAFSVDDIDAAVAHLESHNVKCETIRVDPYTQKRFTFFNDPDGLPLELYEQGLCGR	soluble
MGSDKIHHHHHHMQGTQQSLPLAVVRGQAMTEMPQDLFIPPEALEVFLESFEGPLDLLLYLIRKQKLDVVDLPISQITAQYLEYIAMLTQARIELASDYLVMAATLAEIKSRLLLPRMVAEDEVEEDPRAQLIRQLKAYEVIKEASQKIDDLPRLERDVFQATAAPSPNIKPLVIPPDVSLFEIARAFGDVLKRIDAYEDHHVKREQLSTRERMSQILAMLNSEDFTPFERLFSVEEGRAGVVVTFLALMELVKELLVELYQTEPFSTIYVKAY	not soluble
MSLKIGIIGASGKAGNEILKEAKKRGHEVTAIVRNASKVQEQDVAILEKDVFELTAEDIKPFDAVVNAFGAAPGQEHLHVEAGRALISILKDAKHTRLLVVGGAGSLFVDEAKTTRLMDTPEFPKEYLPTASNQGENLKDLQQTDSISWTFLSPAAFFDPAGKRTGSYQKGKDNVIVNAKGDSYISYADYAIAVLDELEHPEHKNERFTVVSEAEEGGSHHHHHH	soluble
MLSRFSGKVALVTGSSNGIGRAAAVLFAKDGAKVTVTGRNAERLEETRQEILKSGVPESHVLSVATDLAAEKGQDELVNSTIQKFGRLDILVNNAGAAFNDDQGRVGVDQDVSVYDKIMQINMRSVVTLTQKAKEHLVKAKGEIVNVSSIAGTAHAQPGVMYYAMSKSALDQFTRCAAIDLIQYGVRVNSVSPGGVTTGFGEAMGMPSGAFEEMMKFMESRKECIPSGAVAKPIDIANIIAFLADRKLSSYIIGQSIVADGGSTLVLGMNAHNWADLMKQS	not soluble
MLHEIPKSEILKELKRIGAKRVLIQSPEGLRREAEELAGFLEENNIEVFLHGEINYGACDPADREAKLVGCDALIHLGHSYMKLPLEVPTIFVPAFARVSVVEALKENIGEIKKLGRKIIVTTTAQHIHQLKEAKEFLESEGFEVSIGRGDSRISWPGQVLGCNYSVAKVRGEGILFIGSGIFHPLGLAVATRKKVLAIDPYTKAFSWIDPERFIRKRWAQIAKAMDAKKFGVIVSIKKGQLRLAEAKRIVKLLKKHGREARLIVMNDVNYHKLEGFPFEAYVVVACPRVPLDDYGAWRKPVLTPKEVEILLGLREEYEFDEILGGPRESDEPFGISIHSTRLEHHHHHH	not soluble
MKVEIEPQTLRYQPKEIRETKRPTIAYEHPNALTYLKSMKENIIRFANKKSLYTQHDEYIKNVFMDERVNLKYHCESIVSYIAEAFIHYSVWDHSHAYYPGRPSQQTARTDALEGTSRTLPTLAAWLHANGRSNTIITGLNQQPILVPEILRKAFLAGTNPQHKGYWGTLHHCDQRVCEGADLALALWMSKEWVWDCFSIDEKCQIITWFKQVNQCETVDNNWHLFVLTVQIVLKALTGEDEVQYDKYERVKEFYVGDGWFRDGAKGNYDYYNAWAFHYSLYWFTQIDVDFDSTFINNALSDFVGNYRYFFGKEGFPFFGRSACYRLAAAAPLLAAVDLQSDKITIGEAKRAFHCNLKYFISNGALKAGLPTQGLFDEDVRLVDNYSGPASSLWSLRALNIALFCGEKINLWQAEEAPLAIEQGNFELDISAINMKILGVYETQEVIAIFKNEYTQDQSPLSRRLLAPSRWEQTIEKITGRANRPKNNLLRKGITCYSSKMESFFLEHHHHHH	not soluble
MITSTNKEAYPNTLIVILGHDEGRSSFEEKEDVTRVTNDKGETIGFNFFNVDKLIDFDKLPNGPVKLSDDELEALNKKLAEVGFDDKLEYGKPTLVYGYVKTCEKHPDSDHLHVTTIEVGDGEEHQIVCGAPNIAQGQKVVVALPGTLMPNGAQIWPGKLRGVDSYGMICSARELGLPHAPQKRGIMVVPDSFEVGAEFEPTKCDELIASGEITLLEHHHHHH	soluble
MGSDKIHHHHHHMGVKFTLMGTTAGLGVPAFHCNCIACREARADPFWARTRSGAVLETGKENILIDASPDLSKQLLRERIQSVDYLFVTHWHYDHFGGIGDLEYYVKLERKRPVALFLPPSAVDDFAKAYPFLEEVFVIEPWEFGKSYAFEGIELTVLPARHSIETGGILLAGAKRAAYFTDTSGLPAPTARQLQGVDTLICDATFNGANWFPHSHMNWQEAIALGESIRAQHTVLTHLAMHYSTPITAAQLQEKLKDYAQVSLAYDGMVLTI	not soluble
MGSSHHHHHHSSGLVPRGSHMKLQFNLKAYFKTSADPTPAKDAIAALFEEANSTLLTRGAPEGQGAKVTEWKLGEDRIELTLQSGRYVRVHDAIFRLRKQLAEALGKKYKIGIRGIEVESFIIKVPADHELRMLKVPYIKSMENIEGGIQLELEVGEAEMKNRVPDRILTLLEEKIEAAQYGAKAEHWNLLWQREPMEHPFKEDPTQAMMKEGWLKRGSSRGQWIHGPQSARIFRTFEKIVLEELLEPLGYREMIFPKLVTWEVWMKSGHAKGVYPEIYYVCPPQTRDPDYWEEVADYYKVTHEVPTKLIKEKIAEPIGGMCYAQCPPFWMYVAGETLPNEEIPVKVFDRSGTSHRYESGGIHGIERVDEFHRIEIVWIGTKEEVLKCAEELHDRYMHIFNDILDIEWRKARVTPWFMAQEGLLGLAEENTVGTTDYEACLPYRGPDGEWLEFQNVSINGDKYPKGFNVKLQSGDELWSGCSGVGLERWAAVFLAQKGLDPANWPEEFRNRVGEMPKGIRFL	soluble
MSAISPDTKSFAIPTLADEGSSSKPASSLDLPKHESIRFKPIKTLASRIDGSEYYDEASMEKVMEMLEIGRTDEAVAYADTLYSNIIDDEQQDIVTIAEYVKILVVLRQWRRISHIIARGNYHQIHIVFAYYAATALFQRKLYEDVAELSVGHLLPSNGQIGPLPVRTLSQVTGRYVEEERMKYSFANMAELDNSSKKLRMVPALMITIAESFLKLMNRDAAMICINYALSLDNTTLHVERLMAKYNLVEPAMWEKYRKVRNEQLKLHEGNHDPRILMERAQRAYEMGRFRETKKITDELFDLFGPHPECIILRIHCLTMLKDSRSLLELGHQLVSDDPHIPLPWYCVAMYYYSIGANSRARNFISKCTMMDSTFAEGWVAFGHILHYEVEHEQSMSCYYRASKLVDKSSEPFLYTSLQYSTHSQKLSKKFMGEAVARAPNDPLIRHEEACVAYTAKSYAEADILFRTVLYMVTETDEIIPIEEVLKKKIDDFWHPMLNNIGHIARRQGRLNEAIMFYQKAIRMEPKFVDAIASTALCYAVLGNIDKATEFFNKALAIDPFNETIRQCLSKMIQASKESYSVDQQTLPPAYNSETYFGAQEILPYCAIRKPRNDGFVVPSIVSSSQPFMSMLRDRLRRQDQLYAQEPDNDAGNQV	not soluble
MNRHPALSLDLDDGIDRKVLGQLRQRFLAVNAGRLQRARQALSSRQERVLRLLPLLFHINHPLLPGYLSASTPAGLSGFEADDEVLAEAQRLARSFVYKPRRQEPAQQPIHGLFLMGSLGSLAQEEQSDLDLWVCHAPELEPGARQELRRKCALIEDWARSQGSEVHCFLIDVARFGQDEREDRKEPGGDGNTQHFLLLDEFYRSAIWLGGRTPLWWLVPPAHERRYDEYCRTLLGKRFIRAEEVLDLGHLAHIPAREFIGAGLWQLSKAIDSPYKSLLKLLLTEAYASEHPRVRCVALRFKEQVFAGQLDLDELDPYVLVYRHLERYLREQQAPERLELVRRCLYLKVGRKLGGRQRQAQKGWQHLSMERLVAEWQWEPRRLALLDSRSQWKMRQVMEERRTVVNELTYSYRLLFQIARQQGADSGIDSRDLGLLGRRLYAAFERKAGKVENINPGIAPDLGEDVLTLVQLPADDGREQAQWAIFPGALGAHQWPDYAPLKRSLRLVELLAWCHRNGVIDSATRLSLHPGQSDLGDAELDNLLGSLRQFLPVPLATVDDADLLQPRRLKSVLLLVNVGVDPLRHHSQMNLHMATGRTDVLGYAGVRDNLVLTLDQLSLNSWNELTVRHYAGPQALPECLAEFLDAVREKPGSPPQPPELMVRCFCRNRAAAIAVRVEELFRETYGQLLGGQPSRYLLQIRQQYHLLEMSPEAVSHESLPDLPSLLQHLGRERDGYSALKLDRHALEGEDLGLILSMGRPDCIQVFYRRDFDSAEISLLDERNALWRQRQALRDERSLLAPLQRFLQSLLYRRNALSLAEQVPAALDIRYYELLSNDGRVHVEPREAPEALAGPALYELQALLERGERKRVQVTLYCDHQEFSELEYGAGLFKAVARHILAHRAESEPYPCYLTDLDLSRLFADEQPQTLHYLRYKSVLETALNQALLE	not soluble
VDYTLRRRSLLAEVYSGRTGVSEVCDANPYLLRAAKFHGKPSRVICPICRKEQLTLVSWVFGEHLGAVSGSARTAEELILLATRFSEFAVHVVEVCRTCSWNHLVKSYVLGAARPARPPRGSGGTRTARNGARTASE	not soluble
